# Experimental data: PMC8040287, “Characterization of two enzymes from Psychrobacter cryohalolentis that are required for the biosynthesis of an unusual diacetamido-D-sugar” (The Journal of Biological Chemistry, 2021)
# T1: Pcryo_0638 (Psychrobacter cryohalolentis, UniProt Q1QD32)
# T1 construct: full length; N-terminal His tag removed with rTEV; expressed in E. coli Rosetta2(DE3); dimer; residues Ala 5 to Asn 399 seen in crystal
# T1 sequence (Q1QD32 1-400): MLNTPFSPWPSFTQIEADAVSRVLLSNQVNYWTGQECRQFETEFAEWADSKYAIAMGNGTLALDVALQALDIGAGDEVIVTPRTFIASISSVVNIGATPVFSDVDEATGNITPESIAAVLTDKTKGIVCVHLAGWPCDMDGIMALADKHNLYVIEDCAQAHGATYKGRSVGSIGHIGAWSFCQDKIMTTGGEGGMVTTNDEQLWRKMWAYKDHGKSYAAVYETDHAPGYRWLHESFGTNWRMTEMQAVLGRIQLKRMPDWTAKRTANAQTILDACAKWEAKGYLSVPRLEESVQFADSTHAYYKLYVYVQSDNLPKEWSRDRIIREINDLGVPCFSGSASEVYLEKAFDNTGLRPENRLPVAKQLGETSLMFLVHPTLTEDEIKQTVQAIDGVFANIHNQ
# B1: Pcryo_0638, PLP-dependent aminotransferase from Psychrobacter cryohalolentis K5T (enzyme)
# chain: T1 sequence (Q1QD32 1-400)
# notes: Pcryo_0638, aminotransferase encoded by gene 0638 of Psychrobacter cryohalolentis K5T (ATCC BAA-1226); electron density continuous from Ala 5 to Asn 399; also called protein encoded by the 0638 gene; Pyro_0638; source: E. coli Rosetta2(DE3), purified (Ni-NTA, tag removed with rTEV protease); not shown: polyhistidine tag, N-terminal, cleaved
# B2: Pcryo_0637 (Psychrobacter cryohalolentis K5) (protein)
# chain: MSKVFAVYGASGCGRSLMPVANEQLRILEGDTDSQIVFIDDALDDNITVNGYTAMNYTKFKSIKNDDKFVLIAIANSSIRQKIADKLVKDGISLWTVQGMTTLIMDEVSIDAGAALSPFVTIAANVTIGKCFHANLYSYVEHDCIIGDYVTFAPRVSCNGNIHIHDHAYIGTGAVIKQGTPDKPLIIGKGAIVGMGAVVTKEVPAGAVVIGNPARLLNK
# notes: full length; kinetics with N-terminal His tag removed by rTEV; crystals with noncleavable C-terminal tag LEHHHHHH; expressed in E. coli Rosetta2(DE3); trimer; domains Ser 2-Ser 93 and Leu 94-Ala 218
# Legend:
# [1] = target: Pcryo_0637, N-acetyltransferase from Psychrobacter cryohalolentis K5T, C-terminally His-tagged form used for crystallization (Psychrobacter cryohalolentis K5T (ATCC BAA-1226)) (UniProt Q1QD33); experiment: crystal structure; hanging drop, room temperature, 23-26% 2-methyl-2,4-pentanediol, 100 mM HEPES pH 7.5, with CoA or acetyl-CoA and UDP or UDP-sugar ligands (four complexes); space group R3, one subunit in the asymmetric unit, trimer formed about the crystallographic triad; 1.3-1.55 Å
# Pcryo_0638 = target: T1, Pcryo_0638; experiment: X-ray crystal structure, […] Å; format: binding; conditions: pH 8.0
# purified protein = substrate: CC(=O)N[C@H]1[C@@H](OP(=O)(O)OP(=O)(O)OC[C@H]2O[C@@H](n3ccc(=O)[nH]c3=O)[C@H](O)[C@@H]2O)O[C@H](C)C(=O)[C@@H]1O; experiment: purified protein; format: biochemical, Psychrobacter cryohalolentis; conditions: 50 mM HEPPS pH 8.0, 0.5 mM PLP, 40 mM sodium glutamate
# [2] = target: the molecule itself; experiment: crystal structure; hanging drop, room temperature, 18-22% PEG 8000, 200 mM tetramethylammonium chloride, 100 mM HEPPS pH 8.0, with 1 mM PLP and 5 mM UDP-2-acetamido-4-amino-2,4,6-trideoxy-D-glucose; space group P1, one dimer in the asymmetric unit; 1.3 Å
# [3] = substrate: CC(=O)N[C@H]1[C@@H](OP(=O)(O)OP(=O)(O)OC[C@H]2O[C@@H](n3ccc(=O)[nH]c3=O)[C@H](O)[C@@H]2O)O[C@H](C)[C@@H](N)[C@@H]1O; experiment: discontinuous HPLC assay of acetylated product, Michaelis-Menten fit; format: biochemical, Psychrobacter cryohalolentis; conditions: 50 mM HEPPS pH 8.0, 1.5 mM acetyl-CoA, structure with CoA solved on C-terminally tagged protein
# Source text: (§1) discontinuous HPLC assay of acetylated product, Michaelis-Menten fit on Pcryo_0637
# [4] = substrate: CC(=O)SCCNC(=O)CCNC(=O)[C@H](O)C(C)(C)COP(=O)(O)OP(=O)(O)OC[C@H]1O[C@@H](n2cnc3c(N)ncnc32)[C@H](O)[C@@H]1OP(=O)(O)O; experiment: as above; format: biochemical, Psychrobacter cryohalolentis; conditions: 50 mM HEPPS pH 8.0, 8 mM UDP-2-acetamido-4-amino-2,4,6-trideoxy-D-glucose, structure with UDP solved on C-terminally tagged protein
# Source text: as §1
molecule,measurement,setting,value
"Pcryo_0637, N-acetyltransferase from Psychrobacter cryohalolentis K5T, C-terminally His-tagged form used for crystallization (from UniProt Q1QD33 1-219) (enzyme)",stoichiometry N,[1],3
Cc1ncc(COP(=O)(O)O)c(C=O)c1O [PLP],"X-ray crystal structure, 1.3 Å","Pcryo_0638; covalent, external aldimine with the aminosugar product, half-occupancy",a mixture of the external aldimine and PMP was subsequently built into the electron density
Cc1ncc(COP(=O)(O)O)c(CN)c1O [PMP],"X-ray crystal structure, 1.3 Å",Pcryo_0638; half-occupancy beside the external aldimine,a mixture of the external aldimine and PMP was subsequently built into the electron density
B1,Km,purified protein,290 ± 40 µM
same,kcat,purified protein,1.9 ± 0.2 s⁻¹
same,kcat/Km,purified protein,6600 ± 700 M⁻¹ s⁻¹
same,stoichiometry N,[2],2
B2,Km,[3],620 ± 50 µM
same,kcat,[3],545 ± 40 s⁻¹
same,kcat/Km,[3],880000 ± 90000 M⁻¹ s⁻¹
same,Km,[4],70 ± 8 µM
same,kcat,[4],1900 ± 200 s⁻¹
same,kcat/Km,[4],2.7e+07 ± 3e+06 M⁻¹ s⁻¹
